B1: Protein bicaudal D homolog 2 (Homo sapiens), Q8TD16 (parent)
chain: MSAPSEEEEYARLVMEAQPEWLRAEVKRLSHELAETTREKIQAAEYGLAVLEEKHQLKLQFEELEVDYEAIRSEMEQLKEAFGQAHTNHKKVAADGESREESLIQESASKEQYYVRKVLELQTELKQLRNVLTNTQSENERLASVAQELKEINQNVEIQRGRLRDDIKEYKFREARLLQDYSELEEENISLQKQVSVLRQNQVEFEGLKHEIKRLEEETEYLNSQLEDAIRLKEISERQLEEALETLKTEREQKNSLRKELSHYMSINDSFYTSHLHVSLDGLKFSDDAAEPNNDAEALVNGFEHGGLAKLPLDNKTSTPKKEGLAPPSPSLVSDLLSELNISEIQKLKQQLMQMEREKAGLLATLQDTQKQLEHTRGSLSEQQEKVTRLTENLSALRRLQASKERQTALDNEKDRDSHEDGDYYEVDINGPEILACKYHVAVAEAGELREQLKALRSTHEAREAQHAEEKGRYEAEGQALTEKVSLLEKASRQDRELLARLEKELKKVSDVAGETQGSLSVAQDELVTFSEELANLYHHVCMCNNETPNRVMLDYYREGQGGAGRTSPGGRTSPEARGRRSPILLPKGLLAPEAGRADGGTGDSSPSPGSSLPSPLSDPRREPMNIYNLIAIIRDQIKHLQAAVDRTTELSRQRIASQELGPAVDKDKEALMEEILKLKSLLSTKREQITTLRTVLKANKQTAEVALANLKSKYENEKAMVTETMMKLRNELKALKEDAATFSSLRAMFATRCDEYITQLDEMQRQLAAAEDEKKTLNSLLRMAIQQKLALTQRLELLELDHEQTRRGRAKAAPKTKPATPSL

How the values were obtained:
[1] = variants of: B1; settings: with rab6a_human RAB6A
[2] = variants of: B1; settings: with dc1i1_human DYNC1I1, O14576
dc1i1_human DYNC1I1, O14576, sequence (O14576 whole entry): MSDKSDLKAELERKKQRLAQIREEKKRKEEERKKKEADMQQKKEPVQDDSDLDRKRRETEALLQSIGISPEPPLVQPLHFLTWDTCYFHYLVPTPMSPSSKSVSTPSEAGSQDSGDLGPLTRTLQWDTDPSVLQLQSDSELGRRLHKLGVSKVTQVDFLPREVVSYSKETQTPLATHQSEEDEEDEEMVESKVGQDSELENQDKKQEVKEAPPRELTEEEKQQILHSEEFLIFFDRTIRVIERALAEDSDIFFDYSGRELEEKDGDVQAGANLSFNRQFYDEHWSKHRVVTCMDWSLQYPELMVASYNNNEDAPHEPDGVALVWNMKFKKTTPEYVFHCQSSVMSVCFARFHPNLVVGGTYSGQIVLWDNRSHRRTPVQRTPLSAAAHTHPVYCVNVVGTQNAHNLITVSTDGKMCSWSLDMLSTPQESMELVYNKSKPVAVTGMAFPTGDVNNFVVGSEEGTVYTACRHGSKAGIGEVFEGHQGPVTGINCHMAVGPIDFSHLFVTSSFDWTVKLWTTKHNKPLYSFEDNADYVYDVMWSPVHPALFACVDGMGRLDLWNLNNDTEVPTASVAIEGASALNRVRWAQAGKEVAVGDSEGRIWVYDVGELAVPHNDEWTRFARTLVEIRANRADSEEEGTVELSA

[3] = variants of: B1; settings: with rab6a_human RAB6A; remark: listed apart in the source

For E774G, the “effect of a mutation on the interaction” value [1] was “decreasing interaction strength”.

With S107L the “effect of a mutation on the interaction” value [2] was “increasing interaction strength”, the “effect of a mutation on the interaction” value [1] was “with no effect” and the “effect of a mutation on the interaction” value [3] was “decreasing interaction strength”.
